B1: Pistol ribozyme (parent)
chain: GGGUCGUUGUUCCAUAAUCGCGUGGAUAUGGCACGCAAGUUUCUACCGGGCACCGUAAAUGUCCGACUGGAGCCGUUCGGGCGGCUAUAAACAGACCUCAGGCCCGAAGCGUGGCGGCACCUGCCGCCGGUGGUAAAAAAGAUCGGAAGAGCACACGUCU

Variants of: B1
Assay: aptazyme ON/OFF ratio, guanine; higher = stronger switching; co-transcriptional cleavage with and without guanine

Variant | aptazyme ON/OFF ratio
U7A U8A G9U U10G U11G C12G C13U | 1.22
U7A U8A G9U U10G U11G C12G C13G | 1.16
U7A U8A G9U U10G U11G C12G C13A | 1.21
U7A U8A G9U U10G U11C C12A C13U | 1.21
U7A U8A G9U U10G U11C C12A C13G | 1.15
U7A U8A G9U U10G U11C C12A C13A | 1.29
U7A U8A G9U U11C C13A | 1.11
U7A U8A G9U U11C C13U | 1.04
U7A U8A G9U U11C C13G | 1.05
U7A U8A G9U U10G C12A C13G | 1.09
U7A U8A G9U U10G C12A C13A | 1.38
U7A U8A G9U U10G C12A C13U | 1.19
U7A U8A G9U U10G C12G C13U | 1.23
U7A U8A G9U U10G C12G C13A | 1.21
U7A U8A G9U U10G C12G C13G | 1.08
U7A U8A G9U U10G U11G C12U C13G | 1.24
U7A U8A G9U U10G U11G C12U C13A | 1.47
U7A U8A G9U U10G U11G C12U C13U | 1.22
U7A U8A G9U U11G C12A C13A | 1.29
U7A U8A G9U U11G C12A C13G | 1.27
U7A U8A G9U U11G C12A C13U | 1.22

Variant | aptazyme ON/OFF ratio
U7A U8A G9U U10C U11C C12A | 1.04
U7A U8A G9U U10C U11C C12G | 1.06
U7A U8A G9U U10C U11C C12U | 1.02
U7A U8A G9U U10C U11G C13A | 1.1
U7A U8A G9U U10C U11G C13G | 1.17
U7A U8A G9U U10C U11G C13U | 1.14
U7A U8A G9U U10G U11C C12U C13G | 1.22
U7A U8A G9U U10G U11C C12U C13A | 1.09
U7A U8A G9U U10G U11C C12U C13U | 1.28
U7A U8A G9U U10G U11C C12G C13A | 1.09
U7A U8A G9U U10G U11C C12G C13U | 1.24
U7A U8A G9U U10G U11C C12G C13G | 1.14
U7A U8A G9U U11C C12G C13G | 1.04
U7A U8A G9U U11C C12G C13U | 1.29
U7A U8A G9U U11C C12G C13A | 1.18
U7A U8A G9U U10G C12U C13U | 1.51
U7A U8A G9U U10G C12U C13G | 1.26
U7A U8A G9U U10G C12U C13A | 1.17
U7A U8A G9U U11G C12U | 1.31
U7A U8A G9U U11G C12G | 1.19
U7A U8A G9U U11G C12A | 1.1

Variant | aptazyme ON/OFF ratio
U7A U8A G9U U10G U11G C12A C13G | 1.2
U7A U8A G9U U10G U11G C12A C13U | 1.17
U7A U8A G9U U10G U11G C12A C13A | 1.24
U7A U8A G9U U10C U11A C12U | 1.23
U7A U8A G9U U10C U11A C12G | 1.18
U7A U8A G9U U10C U11A C12A | 1.22
U7A U8A G9U U10G U11A C12U | 1.07
U7A U8A G9U U10G U11A C12A | 1.29
U7A U8A G9U U10G U11A C12G | 1.32
U7A U8A G9U U10G U11G C13U | 1.17
U7A U8A G9U U10G U11G C13G | 1.3
U7A U8A G9U U10G U11G C13A | 1.24
U7A U8A G9U U10C U11G C12U | 1.22
U7A U8A G9U U10C U11G C12A | 1.04
U7A U8A G9U U10C U11G C12G | 1.15
U7A U8A G9U U11C C12U C13G | 1.02
U7A U8A G9U U11C C12U C13A | 1.18
U7A U8A G9U U11C C12U C13U | 1.32
U7A U8A G9U U10G U11A C12G C13G | 1.4
U7A U8A G9U U10G U11A C12G C13U | 1.51
U7A U8A G9U U10G U11A C12G C13A | 1.18

Variant | aptazyme ON/OFF ratio
U7A U8A G9U U10C U11A C12G C13G | 1.17
U7A U8A G9U U10C U11A C12G C13U | 1.16
U7A U8A G9U U10C U11A C12G C13A | 1.25
U7A U8A G9U U10C U11C C12A C13U | 1.05
U7A U8A G9U U10C U11C C12A C13A | 1.04
U7A U8A G9U U10C U11C C12A C13G | 1.12
U7A U8A G9U U11C C12G | 1.19
U7A U8A G9U U11C C12A | 1.17
U7A U8A G9U U11C C12U | 1.13
U7A U8A G9U U11A C12A C13G | 1.12
U7A U8A G9U U11A C12A C13U | 1.22
U7A U8A G9U U11A C12A C13A | 1.04
U7A U8A G9U U11G C13A | 1.13
U7A U8A G9U U11G C13U | 1.16
U7A U8A G9U U11G C13G | 1.08
U7A U8A G9U U10G U11A C12U C13A | 1.14
U7A U8A G9U U10G U11A C12U C13G | 1.15
U7A U8A G9U U10G U11A C12U C13U | 1.13
U7A U8A G9U U11G C12U C13A | 1.28
U7A U8A G9U U11G C12U C13U | 1.55
